B1: glmS ribozyme (parent)
chain: AUAAAAGCGCCAGAACUACAGAAAUGUAGUUGACGAGGAGGAGGUUUAUCGAAUUUUCGGCGGAUGCCUCCAAA

What all share (conditions): with glucosamine-6-phosphate
Variants of B1 are the subject of data set [1]. The data set can be described thus: self-cleavage kobs at 160 uM GlcN6P; higher = faster cleavage; RNA array. The gist of the method:
(§1)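 Glucosamine-6-phosphate (40 μM to 10 mM) in HEPES/KCl/Mg(OAc)2 buffer was flowed over sequenced MiSeq chips, and tiles were imaged over ~14 h. Barcoded ribozyme variants there had been transcribed in situ by E. coli RNA polymerase and were tracked through a hybridised Cy3 probe at 37 °C. One- or two-exponential decay fits to per-tile medians, normalised to baseline and to non-cleaving reference variants, gave kobs. kcat and KM came from weighted Michaelis–Menten fits across concentrations.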

In data set [2] the parent is B1. The data set can be described thus: self-cleavage kobs at 640 uM GlcN6P; higher = faster cleavage; RNA array. The gist of the method: as §1
Data set [3] covers variants of B1. The data set is described as follows: self-cleavage kobs at 2500 uM GlcN6P; higher = faster cleavage; RNA array. The gist of the method: as §1
Data set [4] covers variants of B1. The data set is described as follows: self-cleavage kobs at 10000 uM GlcN6P; higher = faster cleavage; RNA array. The gist of the method:
as §1

± gives the standard error. This sample holds only a part of the variants without activity. Where only a bound is given, the exact number is not on record here.

With AUAAAAGCGCCAGAACUACAGAAAUGUAGUUGACGAGGAUGACGUUUAUCGAAUUUUCGGCGGAUGCGUCCAAA [G40U G43C C68G], in the data set with glucosamine-6-phosphate [1], the “self-cleavage kobs at 160 uM GlcN6P” value was found to be 0.000486 ± 0.00015 s⁻¹. In the data set with glucosamine-6-phosphate [2], the “self-cleavage kobs at 640 uM GlcN6P” value stood at 0.000552 ± 0.00012 s⁻¹. Moreover, the “self-cleavage kobs at 2500 uM GlcN6P” value with glucosamine-6-phosphate [3] amounted to 0.00105 ± 0.00026 s⁻¹.
AUAAAAGCGCCAGAACUACAGAAAUGUAAUUGACGUGGAGGAGGUUUAUCGAAUGUUCGGCGGAUGCCUCCAAA [G29A A36U U55G]: the “self-cleavage kobs at 160 uM GlcN6P” value with glucosamine-6-phosphate [1] was below 1e-05 s⁻¹. Besides, in the data set with glucosamine-6-phosphate [2], the “self-cleavage kobs at 640 uM GlcN6P” value is below 1e-05 s⁻¹.
AUAAAAUCGCCAGAACUACAGAAAUGUAGUUGACGAGGAGGAGGUUUAUCGAAUUUUCGGCAGAUGACUCCAAA [G7U G62A C67A]: the “self-cleavage kobs at 160 uM GlcN6P” value with glucosamine-6-phosphate [1] was below 1e-05 s⁻¹. In addition, the “self-cleavage kobs at 640 uM GlcN6P” value in the data set with glucosamine-6-phosphate [2] was below 1e-05 s⁻¹. In the data set with glucosamine-6-phosphate [3], the “self-cleavage kobs at 2500 uM GlcN6P” value was below 1e-05 s⁻¹.
Regarding AUAAAAUCGCCAGACCUACAGAAAUGUAGUUGACGUGGAGGAGGUUCAUCGAAUUUUCGGCGGAUGCCUCCAAA [G7U A15C A36U U47C], in the data set with glucosamine-6-phosphate [1], the “self-cleavage kobs at 160 uM GlcN6P” value is below 1e-05 s⁻¹. Moreover, the “self-cleavage kobs at 640 uM GlcN6P” value in the data set with glucosamine-6-phosphate [2] is below 1e-05 s⁻¹. Moreover, the “self-cleavage kobs at 2500 uM GlcN6P” value with glucosamine-6-phosphate [3] was below 1e-05 s⁻¹.
Regarding AUAAAAGCGCCAGAGCUACAGAAAUGUAGUUGCCGAGGAGGAGGUUUAUCGAAUUUUCGGCGGUUGCCUCCAAA [A15G A33C A64U], the “self-cleavage kobs at 160 uM GlcN6P” value with glucosamine-6-phosphate [1] was below 1e-05 s⁻¹. In addition, the “self-cleavage kobs at 2500 uM GlcN6P” value with glucosamine-6-phosphate [3] is below 1e-05 s⁻¹.
AUAAAAGCGCCAGAGGUACAGAAAUGUAGUUGACGAGGAGGAGGUUUAUCGAAUAUUCGGCGGAUGCCUCCAAA [A15G C16G U55A]: the “self-cleavage kobs at 160 uM GlcN6P” value in the data set with glucosamine-6-phosphate [1] is 0.000205 ± 6e-05 s⁻¹. For the same variant, in the data set with glucosamine-6-phosphate [2], the “self-cleavage kobs at 640 uM GlcN6P” value was 0.000405 ± 0.00011 s⁻¹. The “self-cleavage kobs at 2500 uM GlcN6P” value with glucosamine-6-phosphate [3] worked out at 0.00143 ± 0.0004 s⁻¹.
AUAAAAACGCCAGAUCUACAGAAAUGUAGUUGACGAGGAGGAGGUUUAUCGAAUUUUCGGCGGAUGCCUCCAAA [G7A A15U]: the “self-cleavage kobs at 160 uM GlcN6P” value with glucosamine-6-phosphate [1] is below 1e-05 s⁻¹.
On to AUAAACGCGCCAGAACUACAGAAAUGUAGUUGACGAGGAGGAGUUUUAUCGAAUUUUCGGCGGAUGCCUCCAAA [A6C G44U], for which, in the data set with glucosamine-6-phosphate [1], the “self-cleavage kobs at 160 uM GlcN6P” value is below 1e-05 s⁻¹. Moreover, the “self-cleavage kobs at 640 uM GlcN6P” value with glucosamine-6-phosphate [2] is below 1e-05 s⁻¹. Besides, the “self-cleavage kobs at 2500 uM GlcN6P” value with glucosamine-6-phosphate [3] was below 1e-05 s⁻¹. Moreover, the “self-cleavage kobs at 10000 uM GlcN6P” value with glucosamine-6-phosphate [4] is below 1e-05 s⁻¹.
With AUAAAAGCGCCAGAAAUACAGAAAUGUAGUUGAGGAGGAGGAGGUUUAAAGAAUUUUCGGCGGAUGCCUCCAAA [C16A C34G U49A C50A], the “self-cleavage kobs at 160 uM GlcN6P” value with glucosamine-6-phosphate [1] is below 1e-05 s⁻¹.
For the variant AUAAAAGCGCCAGAACUACAGAAAUGUAGUUUACGAGGAGGAGGUUUAUAGAAUUUUCAGCGGAUGCCUCCAAA [G32U C50A G59A], the “self-cleavage kobs at 160 uM GlcN6P” value in the data set with glucosamine-6-phosphate [1] is below 1e-05 s⁻¹. Besides, the “self-cleavage kobs at 640 uM GlcN6P” value with glucosamine-6-phosphate [2] was below 1e-05 s⁻¹.
For the variant AUAAAAGCUCCAGAACUACAGAAAUGUAGUUGACGAGGAGGAAGUUUAUCGAAUUUUCGGCGGAUUCCUCCAAA [G9U G43A G66U], the “self-cleavage kobs at 160 uM GlcN6P” value with glucosamine-6-phosphate [1] was below 1e-05 s⁻¹. Besides, the “self-cleavage kobs at 2500 uM GlcN6P” value with glucosamine-6-phosphate [3] was below 1e-05 s⁻¹.
For the variant AUAAAGGCGCCAGAUCUACAGAAAUGUAGUUGACGAGGAGGAGGUUUAUCGUAUUUUCGGCGGAUGCCUCCAAA [A6G A15U A52U], the “self-cleavage kobs at 160 uM GlcN6P” value with glucosamine-6-phosphate [1] was below 1e-05 s⁻¹. For the same variant, the “self-cleavage kobs at 640 uM GlcN6P” value with glucosamine-6-phosphate [2] is below 1e-05 s⁻¹. Also, the “self-cleavage kobs at 2500 uM GlcN6P” value with glucosamine-6-phosphate [3] is below 1e-05 s⁻¹.
As to AUAAAAGCGCCAGAACUACAGAAAUGUAGUUGAAGAGGAGGUGGUUUAUCGAAUUUUCGGCGGAUGCCUCCAAA [C34A A42U], the “self-cleavage kobs at 160 uM GlcN6P” value with glucosamine-6-phosphate [1] is below 1e-05 s⁻¹. Moreover, the “self-cleavage kobs at 640 uM GlcN6P” value with glucosamine-6-phosphate [2] was below 1e-05 s⁻¹. Besides, the “self-cleavage kobs at 2500 uM GlcN6P” value with glucosamine-6-phosphate [3] was below 1e-05 s⁻¹. Also, the “self-cleavage kobs at 10000 uM GlcN6P” value with glucosamine-6-phosphate [4] was below 1e-05 s⁻¹.
On to AUAAAAGCGUCAGAACUACAGAAAUGUAGUUGACGAGGACGAGUUUUAUCGAAUUUUCGGCGGAUGCCUCCAAA [C10U G40C G44U], for which, in the data set with glucosamine-6-phosphate [1], the “self-cleavage kobs at 160 uM GlcN6P” value was below 1e-05 s⁻¹. The “self-cleavage kobs at 2500 uM GlcN6P” value with glucosamine-6-phosphate [3] was below 1e-05 s⁻¹. Besides, in the data set with glucosamine-6-phosphate [4], the “self-cleavage kobs at 10000 uM GlcN6P” value is below 1e-05 s⁻¹.
As to AUAAAAGCGUCAGAACUACAGAAAUGUAGUUGACGAGGUGGAGGUUUAUCGAAUUUUCGGCGGUUGCCUGCAAA [C10U A39U A64U C70G], the “self-cleavage kobs at 160 uM GlcN6P” value with glucosamine-6-phosphate [1] is below 1e-05 s⁻¹. Besides, the “self-cleavage kobs at 640 uM GlcN6P” value in the data set with glucosamine-6-phosphate [2] is below 1e-05 s⁻¹.

Source of the values: the supplement of paper PMC7125110.
